Data as given in patent publication US20250011430A1 (GUANGZHOU BIO GENE TECHNOLOGY, published 2025).
Substitutions are numbered along the chain they refer to.

T1: B7H3 on cells (B7H3 on HEK293 cells; B7H3 expressed from plasmid on HEK-293T and QT6 cells) (human, UniProt Q5ZPR3 29-534)
T1 construct: whole, on cells; also called HEK293 B7H3 proteins; human B7H3
T1 sequence (looked up): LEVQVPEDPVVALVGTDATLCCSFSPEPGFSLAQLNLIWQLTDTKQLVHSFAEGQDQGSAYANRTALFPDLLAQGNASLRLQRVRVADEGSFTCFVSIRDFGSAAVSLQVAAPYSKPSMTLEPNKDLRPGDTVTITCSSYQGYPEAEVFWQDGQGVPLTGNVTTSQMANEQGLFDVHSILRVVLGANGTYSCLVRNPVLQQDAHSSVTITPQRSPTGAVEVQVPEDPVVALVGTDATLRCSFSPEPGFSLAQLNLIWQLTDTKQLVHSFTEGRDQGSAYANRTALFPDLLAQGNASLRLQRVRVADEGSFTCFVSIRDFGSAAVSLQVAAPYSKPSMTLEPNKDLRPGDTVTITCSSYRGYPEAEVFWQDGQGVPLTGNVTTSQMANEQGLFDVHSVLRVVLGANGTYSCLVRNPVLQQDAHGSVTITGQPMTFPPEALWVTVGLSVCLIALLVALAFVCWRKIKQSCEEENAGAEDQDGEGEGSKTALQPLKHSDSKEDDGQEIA

B1: chimeric antibody ch26B6 (antibody, V domains shown)
VH: EVQLQQSGPELVKPGASVKISCKTSGYAFTEYTMHWVKQSQGKSLEWIGGINPNTGGTTYNQKFNGKATLTVDRSSSTAYMELRSLTSEDSAVYYCTRPYRDDGGFHWYFDVWGAGTAVTVSS
VL: QIVLTQSPAVMSTSPGEKVTMTCSASSSVSYMQWYQQKSGTSPKRWIYDTSKLTSGVPARFSGSGSGTSYSLTISSMEAEDAATYYCQQWSSNPLTFGAGTKLELKR
B2: humanized 6F7 with light chain variable region LV1 (antibody, V domains shown)
VH: EVQLVESGGGLVQPGGSLRLSCAASGFTFTDYYMSWVRQAPGKGLEWVAFIRNKANGYTTEYSASVKGRFTISRDDSKNSLYLQMNSLRAEDTAVYYCARDSHYRPFAYWGQGTLVTVSS
VL: DIVMTQSPLSLPVTPGEPASISCKSSQSLLNSGNQNNYLTWYLQKPGQSPQLLIYLASTRDSGVPDRFSGSGSGTDFTLKISRVEAEDVGVYYCQNDYTYPLTFGGGTKVEIKR
notes: also called hz6F7L1; h6F7H1L1
B3: humanized 6F7 with light chain variable region LV2 (antibody, V domains shown)
VH: B2 VH
VL: DIVMTQSPDSLAVSLGERATINCKSSQSLLNSGNQNNYLTWYQQKPGQPPKLLIYLASTRDSGVPDRFSGSGSGTDFTLTISSLQAEDVAVYYCQNDYTYPLTFGGGTKVEIKR
notes: also called hz6F7L2; h6F7H1L2
B4: chimeric antibody ch2B8 (antibody, V domains shown)
VH: QVQLQQSGPELVRPGVSVKISCKVSGYTFTDGAMHWVKRSHAKSLEWIGIINTNSGNTNYNQKFQGKATMTVDKSSSTAYMELARLTSEDSAIYYCARGVFYYGYGAWFAYWGQGTLVTVSA
VL: DVQITQSPSYLTASPGETIIINCRASKTISNYLAWYQEKPGKTNKLLIYSGSTLQSGIPSRFSGSGSDTDFTLTISSLEPEDFAMYYCQQHHEYPLTFGAGTKLELKR
B5: humanized 26B6 (antibody, V domains shown)
VH: EVQLVQSGAEVKKPGASVKVSCKASGYTFTEYTMHWVRQAPGQGLEWIGGINPNTGGTTYNQKFNGRVTMTRDTSISTAYMELSSLRSEDTAVYYCTRPYRDDGGFHWYFDVWGQGTLVTVSS
VL: EIVLTQSPATLSLSPGERATLSCSASSSVSYMQWYQQKPGLAPRLLIYDTSKLTSGIPDRFSGSGSGTDFTLTISRLEPEDFAVYYCQQWSSNPLTFGGGTKVEIKR
notes: also called hz26B6; h26B6
B6: humanized 2B8 (antibody, V domains shown)
VH: QVQLVQSGAEVKKPGASVKVSCKVSGYTFTDGAMHWVRQAPGQGLEWIGIINTNSGNTNYNQKFQGRVTMTRDTSISTAYMELSRLRSEDTAVYYCARGVFYYGYGAWFAYWGQGTLVTVSS
VL: DIQLTQSPSFLSASVGDRVTINCRASKTISNYLAWYQQKPGKAPKLLIYSGSTLQSGVPSRFSGSGSGTDFTLTISSLQPEDFATYYCQQHHEYPLTFGGGTKVEIKR
notes: also called hz2B8; h2B8
B7: chimeric antibody ch6F7 (antibody, V domains shown)
VH: EVKLVESGGGLVQPGGSLRLSCATSGFTFTDYYMSWVRQPPGKALEWLGFIRNKANGYTTEYSASVKGRFTISSDDSQSILYLQMNTLRAEDSATYYCARDSHYRPFAYWGQGTLVTVSA
VL: DIQMTQSPSSLTVTAGEKVTMSCKSSQSLLNSGNQNNYLTWYQQKPGQPPKLLIYLASTRDSGVPDRFTGSGSGTDFTLTISSVQAEDLAVYYCQNDYTYPLTFGAGTKLELKR
B8: anti-B7H3 antibody 23H1 (antibody, V domains shown)
VH: B7 VH with A55V, G57D, A64V, S74R, D76N, S79T, H103P
VL: B7 VL with Q3V, K18N, S28T, S32N, N36K, Y38F, D61E

What follows are binders tested against T1, B7H3 on cells (B7H3 on HEK293 cells; …) (assay: flow cytometry on HEK293 cells).
Procedure: (§1) 2×10⁵ HEK293 cells were resuspended with PBS+5% BSA and incubated for 30 min at 4° C. Different concentrations of humanized antibody (5 μg/mL to 0.002286 μg/mL, 3-fold gradient dilution) were added and incubated for 60 min at 4° C. After centrifugation and washing, a PBS+5% BSA solution containing an FITC-labeled secondary antibody (1:200, sigma, F9512) was added and incubated on ice for 30 min in the dark. Cells were washed three times before the flow cytometry analysis. EC50 was calculated using GraphPad software.

Binder	EC50 [mg/L]
B1	0.224
B2	0.604
B3	0.41
B4	0.132
B5	0.306
B6	0.0779

The binders below were run against T1, B7H3 on cells (B7H3 on HEK293 cells; …) (assay: flow cytometry on HEK293 cells (text value, conflicts with Table 2)).
Procedure: as §1

Binder	EC50 [mg/L]
B7	0.224
B1	0.232

Each binder was assayed against T1, B7H3 on cells (B7H3 on HEK293 cells; …) (assay: flow cytometry on HEK293 cells, FITC-labelled secondary antibody; y axis without title).
Procedure: as §1, with “5×10⁵” for “2×10⁵”, “of” for “of humanized”, “(1” for “(5”, “0.01” for “0.002286”, “10-fold” for “3-fold”, “analysis.” for “analysis. EC50 was calculated using GraphPad software.”
Using the flow cytometry method, the control antibodies (huM30, Eno) and the 2B8, 26B8, 23H1 and 6F7 antibody were tested for their binding abilities to HEK293 B7H3 proteins at a final concentration of 1 μg/mL, 0.1 μg/mL and 0.01 μg/mL, respectively. Compared with the control antibodies, the 2B8, […], 23H1 and 6F7 antibody each have the same or better binding ability to the HEK293 B7H3 proteins.

Binder	binding result
B8	binds
